Experimental findings from the Human Domainome abundance scans (Beltran et al. 2025) are described below.

B1: Histone-lysine N-methyltransferase SETD2, residues 2382 to 2430; numbered along this chain, Q9BYW2 (parent)
chain: SPPKPKTIVLPPNWKTARDPEGKIYYYHVITRQTQWDPPTWESPGDDAS

± gives the uncertainty stated by the source.

The data set covers variants of B1. The experiment in a line: abundance fitness (aPCA) (normalised: wild type 0, dead -1); higher = more abundant; growth selection in yeast, the domain comes from the species named. Particulars: Homo sapiens.
For SPPKPKTIVLPPNWKTARDPEGKIYYYHVITRQTQWDPPTWESPGPDAS [D46P], the abundance fitness was -0.069 ± 0.044.
Under SPPKPKTIVLPPNWKTARDPEGKIYYYHVITRQTQWDPPTWESPGCDAS [D46C] stands -0.31 ± 0.042.
SPPKPKTIVLPPNWKTARDPEGKIYYYHVITRQTQWDPPTWESPGRDAS [D46R]: the abundance fitness is -0.286 ± 0.046.
Under SPPKPKTIVLPPNWKTARDPEGKIYYYHVITRQTQWDPPTWESPGTDAS [D46T] stands -0.292 ± 0.087.
In the case of SPPKPKTIVLPPNWKTARDPEGKIYYYHVITRQTQWDPPTWESPGSDAS [D46S] it was -0.167 ± 0.039; in that of SPPKPKTIVLPPNWKTARDPEGKIYYYHVITRQTQWDPPTWESPGIDAS [D46I], -0.164 ± 0.066; in that of SPPKPKTIVLPPNWKTARDPEGKIYYYHVITRQTQWDPPTWESPGQDAS [D46Q], -0.358 ± 0.1.
In the case of SPPKPKTIVLPPNWKTARDPEGKIYYYHVITRQTQWDPPTWESPGKDAS [D46K] it was -0.166 ± 0.093.
SPPKPKTIVLPPNWKTARDPEGKIYYYHVITRQTQWDPPTWESPGFDAS [D46F]: the abundance fitness is -0.361 ± 0.13.
Regarding SPPKPKTIVLPPNWKTARDPEGKIYYYHVITRQTQWDPPTWESPGLDAS [D46L], the abundance fitness is -0.053 ± 0.033.
In the case of SPPKPKTIVLPPNWKTARDPEGKIYYYHVITRQTQWDPPTWESPGVDAS [D46V], the abundance fitness is -0.064 ± 0.042.
In the case of SPPKPKTIVLPPNWKTARDPEGKIYYYHVITRQTQWDPPTWESPGMDAS [D46M] it was -0.297 ± 0.092; in that of SPPKPKTIVLPPNWKTARDPEGKIYYYHVITRQTQWDPPTWESPGHDAS [D46H], 0.119 ± 0.1.
Under SPPKPKTIVLPPNWKTARDPEGKIYYYHVITRQTQWDPPTWESPGNDAS [D46N] stands -0.11 ± 0.043; under SPPKPKTIVLPPNWKTARDPEGKIYYYHVITRQTQWDPPTWESPGYDAS [D46Y], -0.436 ± 0.14; under SPPKPKTIVLPPNWKTARDPEGKIYYYHVITRQTQWDPPTWESPGGDAS [D46G], -0.119 ± 0.032.
In the case of SPPKPKTIVLPPNWKTARDPEGKIYYYHVITRQTQWDPPTWESPGWDAS [D46W] it was -0.358 ± 0.084; in that of SPPKPKTIVLPPNWKTARDPEGKIYYYHVITRQTQWDPPTWESPGEDAS [D46E], -0.117 ± 0.068.
For SPPKPKTIVLPPNWKTARDPEGKIYYYHVITRQTQWDPPTWESPGDDAA [S49A], the abundance fitness is -0.418 ± 0.093.
With SPPKPKTIVLPPNWKTARDPEGKIYYYHVITRQTQWDPPTWESPGDDAC [S49C], the abundance fitness was -0.467 ± 0.14.
In the case of SPPKPKTIVLPPNWKTARDPEGKIYYYHVITRQTQWDPPTWESPGDDAM [S49M] it was -0.154 ± 0.33; in that of SPPKPKTIVLPPNWKTARDPEGKIYYYHVITRQTQWDPPTWESPGDDAV [S49V], -0.62 ± 0.19; in that of SPPKPKTIVLPPNWKTARDPEGKIYYYHVITRQTQWDPPTWESPGDDAQ [S49Q], -0.031 ± 0.2.
Under SPPKPKTIVLPPNWKTARDPEGKIYYYHVITRQTQWDPPTWESPGDDAP [S49P] stands 0.043 ± 0.05; under SPPKPKTIVLPPNWKTARDPEGKIYYYHVITRQTQWDPPTWESPGDDAR [S49R], -0.158 ± 0.11; under SPPKPKTIVLPPNWKTARDPEGKIYYYHVITRQTQWDPPTWESPGDDAT [S49T], -0.013 ± 0.045.
Regarding SPPKPKTIVLPPNWKTARDPEGKIYYYHVITRQTQWDPPTWESPGDDAN [S49N], the abundance fitness is -0.696 ± 0.2.
Under SPPKPKTIVLPPNWKTARDPEGKIYYYHVITRQTQWDPPTWESPGDDAE [S49E] stands -0.279 ± 0.19; under SPPKPKTIVLPPNWKTARDPEGKIYYYHVITRQTQWDPPTWESPGDDAI [S49I], -0.088 ± 0.048.
Under SPPKPKTIVLPPNWKTARDPEGKIYYYHVITRQTQWDPPTWESPGDDAF [S49F] stands -0.391 ± 0.099.
For the variant SPPKPKTIVLPPNWKTARDPEGKIYYYHVITRQTQWDPPTWESPGDDAY [S49Y], the abundance fitness is -0.194 ± 0.067.
In the case of SPPKPKTIVLPPNWKTARDPEGKIYYYHVITRQTQWDPPTWESPGDAAS [D47A] it was -0.051 ± 0.033; in that of SPPKPKTIVLPPNWKTARDPEGKIYYYHVITRQTQWDPPTWESPGDVAS [D47V], -0.063 ± 0.037; in that of SPPKPKTIVLPPNWKTARDPEGKIYYYHVITRQTQWDPPTWESPGDMAS [D47M], -0.226 ± 0.077.
Under SPPKPKTIVLPPNWKTARDPEGKIYYYHVITRQTQWDPPTWESPGDEAS [D47E] stands 0.035 ± 0.051; under SPPKPKTIVLPPNWKTARDPEGKIYYYHVITRQTQWDPPTWESPGDHAS [D47H], -0.028 ± 0.042; under SPPKPKTIVLPPNWKTARDPEGKIYYYHVITRQTQWDPPTWESPGDTAS [D47T], -0.032 ± 0.059.
In the case of SPPKPKTIVLPPNWKTARDPEGKIYYYHVITRQTQWDPPTWESPGDIAS [D47I] it was -0.337 ± 0.075.
Consider SPPKPKTIVLPPNWKTARDPEGKIYYYHVITRQTQWDPPTWESPGDNAS [D47N], for which the abundance fitness is -0.241 ± 0.062.
For SPPKPKTIVLPPNWKTARDPEGKIYYYHVITRQTQWDPPTWESPGDKAS [D47K], the abundance fitness was -0.16 ± 0.054.
Under SPPKPKTIVLPPNWKTARDPEGKIYYYHVITRQTQWDPPTWESPGDFAS [D47F] stands -0.443 ± 0.1.
In the case of SPPKPKTIVLPPNWKTARDPEGKIYYYHVITRQTQWDPPTWESPGDGAS [D47G] it was -0.002 ± 0.032; in that of SPPKPKTIVLPPNWKTARDPEGKIYYYHVITRQTQWDPPTWESPGDSAS [D47S], 0.037 ± 0.056; in that of SPPKPKTIVLPPNWKTARDPEGKIYYYHVITRQTQWDPPTWESPGDPAS [D47P], -0.2 ± 0.078.
In the case of SPPKPKTIVLPPNWKTARDPEGKIYYYHVITRQTQWDPPTWESPGDCAS [D47C] it was -0.206 ± 0.072.
With SPPKPKTIVLPPNWKTARDPEGKIYYYHVITRQTQWDPPTWESPGDRAS [D47R], the abundance fitness was -0.146 ± 0.041.
In the case of SPPKPKTIVLPPNWKTARDPEGKIYYYHVITRQTQWDPPTWESPGDLAS [D47L] it was -0.107 ± 0.042; in that of SPPKPKTIVLPPNWKTARDPEGKIYYYHVITRQTQWDPPTWESPGDYAS [D47Y], -0.023 ± 0.054; in that of SPPKPKTIVLPPNWKTARDPEGKIYYYHVITRQTQWDPPTWESPGDWAS [D47W], -0.288 ± 0.068.
In the case of SPPKPKTIVLPPNWKTARDPEGKIYYYHVITRQTQWDPPTWESPGDQAS [D47Q] it was 0.257 ± 0.064; in that of SPPKPKTIVLPPNWKTARDPEGKIYYYHVITRQTQWDPPTWESPLDDAS [G45L], 0.076 ± 0.046; in that of SPPKPKTIVLPPNWKTARDPEGKIYYYHVITRQTQWDPPTWESPCDDAS [G45C], -0.002 ± 0.074.
